Where no end group is shown, it is not given here.
B1: VN peptide P7 (LFSSEESNLGANNYDDYRMDWL) (peptide)
peptide: LFSSEESNLGANNYDDYRMDWL
notes: Free synthetic peptide (Mimotopes) in the migration and growth assays; The array carried only its overlapping 16-mers 7A-7C; also called Peptide 7; motif-7 mimic
B2: VN-peptide 1A (array grid A13) (peptide)
peptide: CQCDELCSYYQSCCTD
modifications: not fully specified (N-terminus); cysteine pairing not given here; also: free end capped by acetylation, immobilised on cellulose membrane (SPOT synthesis)
B3: VN-peptide 8B (array grid J5) (peptide)
peptide: RVNLRTRRVDTVDPPY
modifications: not fully specified (N-terminus); also: free end capped by acetylation, immobilised on cellulose membrane (SPOT synthesis)
B4: VN-peptide 7A (array grid I7) (peptide)
peptide: LFSSEESNLGANNYDD
modifications: not fully specified (N-terminus); also: free end capped by acetylation, immobilised on cellulose membrane (SPOT synthesis)
B5: VN-peptide 3A (array grid F5) (peptide)
peptide: VDAALALPAHSYSGRE
modifications: not fully specified (N-terminus); also: free end capped by acetylation, immobilised on cellulose membrane (SPOT synthesis)
B6: VN-peptide 6C (array grid G14) (peptide)
peptide: TRQPQFISRDWHGVPG
modifications: not fully specified (N-terminus); also: free end capped by acetylation, immobilised on cellulose membrane (SPOT synthesis)
B7: VN-peptide 3B (array grid F6) (peptide)
peptide: ALALPAHSYSGRERVY
modifications: not fully specified (N-terminus); also: free end capped by acetylation, immobilised on cellulose membrane (SPOT synthesis)
B8: VN-peptide 8C (array grid J6) (peptide)
peptide: Ac-LRTRRVDTVDPPYPRS
modifications: also: immobilised on cellulose membrane
B9: VN-peptide 8D (array grid J7) (peptide)
peptide: Ac-RRVDTVDPPYPRSIAQ
modifications: also: immobilised on cellulose membrane
B10: VN-peptide 8A (array grid J4) (peptide)
peptide: KYYRVNLRTRRVDTVD
modifications: not fully specified (N-terminus); also: free end capped by acetylation, immobilised on cellulose membrane (SPOT synthesis)
B11: VN-peptide 6A (array grid G12) (peptide)
peptide: GRTSAGTRQPQFISRD
modifications: not fully specified (N-terminus); also: free end capped by acetylation, immobilised on cellulose membrane (SPOT synthesis)
B12: VN-peptide 7C (array grid I9) (peptide)
peptide: SNLGANNYDDYRMDWL
modifications: not fully specified (N-terminus); also: free end capped by acetylation, immobilised on cellulose membrane (SPOT synthesis)
B13: VN-peptide 6B (array grid G13) (peptide)
peptide: SAGTRQPQFISRDWHG
modifications: not fully specified (N-terminus); also: free end capped by acetylation, immobilised on cellulose membrane (SPOT synthesis)
B14: VN-peptide 7B (array grid I8) (peptide)
peptide: SEESNLGANNYDDYRM
modifications: not fully specified (N-terminus); also: free end capped by acetylation, immobilised on cellulose membrane (SPOT synthesis)
B15: VN-peptide 5B (array grid G6) (peptide)
peptide: FAMMQRDSWEDIFELL
modifications: not fully specified (N-terminus); also: free end capped by acetylation, immobilised on cellulose membrane (SPOT synthesis)
B16: VN-peptide 4A (array grid F12) (peptide)
peptide: KGKQYWEYQFQHQPSQ
modifications: not fully specified (N-terminus); also: free end capped by acetylation, immobilised on cellulose membrane (SPOT synthesis)
B17: VN-peptide 2B (array grid C13) (peptide)
peptide: GIDSRPETLHPGRPQP
modifications: not fully specified (N-terminus); also: free end capped by acetylation, immobilised on cellulose membrane (SPOT synthesis)
B18: VN-peptide 5A (array grid G5) (peptide)
peptide: FEHFAMMQRDSWEDIF
modifications: not fully specified (N-terminus); also: free end capped by acetylation, immobilised on cellulose membrane (SPOT synthesis)
B19: VN-peptide 4B (array grid F13) (peptide)
peptide: QYWEYQFQHQPSQEEC
modifications: not fully specified (N-terminus); also: free end capped by acetylation, immobilised on cellulose membrane (SPOT synthesis)
B20: VN-peptide 5C (array grid G7) (peptide)
peptide: MQRDSWEDIFELLFWG
modifications: not fully specified (N-terminus); also: free end capped by acetylation, immobilised on cellulose membrane (SPOT synthesis)
B21: VN-peptide 5D (array grid G8) (peptide)
peptide: DSWEDIFELLFWGRTS
modifications: not fully specified (N-terminus); also: free end capped by acetylation, immobilised on cellulose membrane (SPOT synthesis)
B22: VN-peptide 2A (array grid C12) (peptide)
peptide: KPEGIDSRPETLHPGR
modifications: not fully specified (N-terminus); also: free end capped by acetylation, immobilised on cellulose membrane (SPOT synthesis)

target: T1, Human receptor grade IGF-II (insulin-like growth factor II) (human, UniProt P01344 25-91); assay: VN-peptide array, ligand overlay, immunoblot/ECL
T1 construct: Bought recombinant protein, overlaid in solution on the VN-peptide array
T1 sequence (P01344 25-91 limits assumed): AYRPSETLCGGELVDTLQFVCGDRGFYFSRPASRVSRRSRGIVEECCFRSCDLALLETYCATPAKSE

Binder	binding result
B1	binds
B2	binds

target: T1, Human receptor grade IGF-II …; assay: VN-peptide array, ligand overlay, immunoblot/ECL, TotalLab spot intensity
Procedure: (§1) Methanol or ethanol was used to enhance the rehydration of peptide spots that might be hydrophobic. The peptides spotted onto the membranes were activated by incubating in 3 mL of 70% ethanol for five mins. The membranes were subsequently washed three times, 10 minutes each, in 10 mL TBS (Tris Buffered Saline; 8 g NaCl, 0.2 g KCl and 6.1 g Tris Base into 1000 mL of milliQ water, pH 7) with gentle rocking. Membrane blocking was performed by incubating in 10 mL casein-based membrane blocking buffer (MBS; Sigma-Aldrich) overnight at 4° C. The following day, the membranes were washed twice, 10 minutes each, in 10 mL TBS-T (TBS+0.05% Tween-20; pH 7).
(§2) Ligands used to test binding to VN-peptides were IGFBP-3, IGFBP-5 and IGF-II. For ligand binding, four separate solutions of 1 μg/mL ligand in 10 mL MBS buffer were prepared and each membrane was incubated in one of the four ligand solutions overnight at 4° C., with gentle rocking. […] The following day, the membranes were washed three times, 10 minutes each, in 10 mL TBS-T.
(§3) The binding of the ligands to peptides within the membrane was detected using immunoblotting. The membranes were incubated overnight at 4° C. with 10 mL primary antibody solution (in MBS buffer) targeting the respective ligands. The antibodies used were anti-IGFBP-3 (1:10,000), anti-IGFBP-5 (1:10,000) and anti-IGF-II (1:5000) to detect IGFBP-3, IGFBP-5 and IGF-II respectively. The following day, the membranes were washed three times, 10 minutes each, in 10 mL TBS-T and incubated with 10 mL HRP-conjugated secondary IgG antibody diluted 1:15,000 in MBS buffer for 1 hour at room temperature. Following a further three washes of 10 minutes each, the peptide spots were visualized using ECL. The membranes were exposed onto x-ray films and developed using a film processor (AGFA CP 1000), or were imaged directly using the ChemiDoc™ XRS system (BioRad).

Binder	Intensity (against -ve control)
B3	17 fold over negative controls
B4	17 fold over negative controls
B5	5 fold over negative controls
B6	1.5 fold over negative controls
B7	10 fold over negative controls
B8	13 fold over negative controls
B9	11 fold over negative controls
B10	5 fold over negative controls
B11	12 fold over negative controls
B12	12 fold over negative controls
B13	0 fold over negative controls
B14	18 fold over negative controls

target: T2, Human receptor grade IGFBP-3 (insulin-like growth factor binding protein 3) (human, UniProt P17936 28-291); assay: as above
T2 construct: Bought recombinant protein, overlaid in solution on the VN-peptide array
Procedure: as §1, §2, §3

T2 sequence (P17936 28-291 limits assumed): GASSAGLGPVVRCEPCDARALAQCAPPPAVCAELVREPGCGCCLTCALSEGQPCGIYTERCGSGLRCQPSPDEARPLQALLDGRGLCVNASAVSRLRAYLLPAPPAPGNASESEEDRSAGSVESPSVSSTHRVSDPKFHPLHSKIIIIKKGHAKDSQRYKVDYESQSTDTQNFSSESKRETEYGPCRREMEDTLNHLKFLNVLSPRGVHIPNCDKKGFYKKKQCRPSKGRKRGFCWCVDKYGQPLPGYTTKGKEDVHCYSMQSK

Binder	Intensity (against -ve control)
B15	4.5 fold over negative controls
B16	6 fold over negative controls
B17	2 fold over negative controls
B3	7 fold over negative controls
B18	1.5 fold over negative controls
B19	12 fold over negative controls
B5	1 fold over negative controls
B6	1.5 fold over negative controls
B20	4.5 fold over negative controls
B2	10 fold over negative controls
B7	1 fold over negative controls
B8	10 fold over negative controls
B21	2.5 fold over negative controls
B22	4 fold over negative controls
B9	4 fold over negative controls
B10	5 fold over negative controls
B11	2 fold over negative controls
B13	1 fold over negative controls

target: T3, Human receptor grade IGFBP-5 (insulin-like growth factor binding protein 5) (human, UniProt P24593 21-272); assay: as above
T3 construct: Bought recombinant protein, overlaid in solution on the VN-peptide array
Procedure: as §1, §2, §3

T3 sequence (P24593 21-272 limits assumed): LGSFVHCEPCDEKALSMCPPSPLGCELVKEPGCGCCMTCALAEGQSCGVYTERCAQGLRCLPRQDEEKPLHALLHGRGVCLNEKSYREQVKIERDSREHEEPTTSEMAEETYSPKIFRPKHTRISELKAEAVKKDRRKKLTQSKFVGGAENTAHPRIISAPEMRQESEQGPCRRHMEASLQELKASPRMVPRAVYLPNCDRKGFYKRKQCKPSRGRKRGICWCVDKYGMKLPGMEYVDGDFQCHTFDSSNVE

Binder	Intensity (against -ve control)
B17	7 fold over negative controls
B3	7 fold over negative controls
B5	3 fold over negative controls
B6	5 fold over negative controls
B2	11 fold over negative controls
B7	3 fold over negative controls
B8	9 fold over negative controls
B22	5 fold over negative controls
B9	8 fold over negative controls
B10	3 fold over negative controls
B11	7 fold over negative controls
B13	1.5 fold over negative controls

— patent US20150299263A1 (FACTOR THERAPEUTICS, published 2015)
